According to patent publication US10370436B2, “Anti-pseudomonas Psl binding molecules and uses thereof” (priority 2011, dated 2019):

Key:
[1] = tested on: P. aeruginosa strains PAO1, 33356, 6294, 6077, 6206; assay: Acute pneumonia model, organ burden; type: in vivo, BALB/c mice; settings: 6294 (O6) and 6206 (O11); FIGS. 7E, 7F
Description: Antibodies or PBS were administered 24 hours before infection in each model. P. aeruginosa acute pneumonia, keratitis, and thermal injury infection models were performed as described (DiGiandomenico, A., et al., Proc Natl Acad Sci USA 104, 4624-4629 (2007)), with modifications. In the acute pneumonia model, BALB/c mice (The Jackson Laboratory) were infected with P. aeruginosa strains suspended in a 0.05 ml inoculum. In the thermal injury model, CF-1 mice (Charles River) received a 10% total body surface area burn with a metal brand heated to 92° C. for 10 seconds. Animals were infected subcutaneously with P. aeruginosa strain 6077 at the indicated dose. For organ burden experiments, acute pneumonia was induced in mice followed by harvesting of lungs, spleens, and kidneys 24 hours post-infection for determination of CFU.

[2] = tested on: P. aeruginosa 6077 (O11-cytotoxic); assay: P. aeruginosa corneal infection (keratitis) model; type: in vivo, mice; settings: versus negative control-treated animals, 24 hours after infection
Description: FIG. 8 (A-G): Anti-Psl monoclonal antibodies Cam-003 and WapR-004 are active in a P. aeruginosa keratitis model and thermal injury model. Mice were treated with a control IgG1 antibody or Cam-003 at 45 mg/kg (A, B) or 15 mg/kg (C, D) or PBS or a control IgG1 antibody or Cam-003 at 45 mg/kg or WapR-004 at 45 mg/kg or 15 mg/kg or 5 mg/kg (F, G) 24 hours prior to infection with 6077 (O11-cytotoxic—2×10^6 CFU). Immediately before infection, three 1 mm scratches were made on the left cornea of each animal followed by topical application of P. aeruginosa in a 5 μl inoculum. 24 hours after infection, the corneal pathology scores were calculated followed by removal of the eye for determination of viable CFU. Differences in pathology scores and viable CFU were determined by the Mann-Whitney U-test. (A) P=0.0001, (B) P<0.0001, (C) P=0.0003, (D) P=0.0015. (F) and (G) Cam-003 (45 mg/kg) vs. WapR-004 (45 mg/kg): P=0.018; Cam-003 (45 mg/kg) vs. WapR-004 (15 mg/kg): P=0.0025; WapR-004 (45 mg/kg) vs. WapR-004 (15 mg/kg): P=0.1331; WapR-004 (5 mg/kg) vs. Ctrl: P<0.0001. Results are representative of five independent experiments. (E) Survival analysis from Cam-003 and R347 treated CF-1 mice in a P. aeruginosa thermal injury model after 6077 infection (2×10^5 CFU) (log-rank: R347 vs. Cam-003 15 mg/kg, P=0.0094; R347 vs. Cam-003 5 mg/kg, P=0.0017). […]

[3] = tested on: luminescent P. aeruginosa serogroup 05 strain (PAO1.lux); assay: Opsonophagocytosis killing (OPK) assay, PAO1.lux; type: cell-based, Pseudomonas aeruginosa; settings: human IgG1 antibodies, differentiated HL-60 cells, baby rabbit serum, FIG. 2A
Description: This example describes the evaluation of prioritized human IgG1 antibodies to promote OPK of P. aeruginosa. […] OPK assays were performed as described in (DiGiandomenico, A., et al., Infect Immun 72, 7012-7021 (2004)), with modifications. Briefly, assays were performed in 96-well plates using 0.025 ml of each OPK component; P. aeruginosa strains; diluted baby rabbit serum; differentiated HL-60 cells; and monoclonal antibody. In some OPK assays, luminescent P. aeruginosa strains, which were constructed as described (Choi, K. H., et al., Nat Methods 2, 443-448 (2005)), were used. Luminescent OPK assays were performed as described above but with determination of relative luciferase units (RLUs) using a Perkin Elmer ENVISION Multilabel plate reader (Perkin Elmer).
This example describes two series of experiments evaluating the ability of PMB-mAb conjugates to promote OPK of P. aeruginosa. In the first experiments (FIGS. 15A-B), conjugate-mediated OPK activity by human HL-60 neutrophil cell line in the presence of rabbit complement was evaluated using P. aeruginosa strains expressing bacterial luciferase as described in Example 2. R347 was used as a negative control in these experiments. […] In the second series of experiments, reduction in luminescence following 2 h incubation relative to control lacking mAb was used to determine % killing.

B1: WapR-004: anti-Psl antibody, VH SEQ ID NO: 11 and VL SEQ ID NO: 12 (antibody, V domains shown)
VH: EVQLLESGPGLVKPSETLSLTCNVAGGSISPYYWTWIRQPPGKGLELIGYIHSSGYTDYNPSLKSRVTISGDTSKKQFSLHVSSVTAADTAVYFCARGDWDLLHALDIWGQGTLVTVSS
VL: EIVLTQSPSSLSTSVGDRVTITCRASQSIRSHLNWYQQKPGKAPKLLIYGASNLQSGVPSRFSGSGSGTDFTLTISSLQPEDFATYYCQQSYSFPLTFGGGTKLEIK
modifications: WapR-004 VH; WapR-004 & WarR-004RAD VL
dissemination to the spleen and kidneys [1]: effective at reducing P. aeruginosa dissemination to the spleen and kidneys | organ burden [1]: reduced organ burden | bacterial counts in total eye homogenates [2]: reduced bacterial counts | corneal pathology ([2]; FIGS. 8A-D, F-G): significantly less pathology | OPK activity (concentration dependent killing) [3]: superior OPK activity
